Test results published in patent US20250084172A1.

Molecular target: mutagenized ULBP6 phage library (pool of ULBP6 mutants displayed on M13 phage)
Test: plate panning; antibody coated at 5 ug/mL, eluted phage titered against PBS-coated background wells

Row | Binder | Phage enrichment [fold]
1 | humanized 6E1 (h6E1), Fc version not stated (antibody, V domains shown) VH: EVQLVQSGAEVKKPGASVKVSCKASGYTFTNYWMHWMRQAPGQGLEWLGRIHPSDSDTNYNQKFKGRATLTVDKSISTAYMELSRLRSDDTAVYYCAIEGTGKGYFDVWGRGTLVTVSS VL: DIQMTQSPSSLSASVGDRVTITCKASQDIYSYLSWFQQKPGKSPKTLIYRANRLVDGVPSRFSGSGSGQDFTLTISSLQPEDFATYYCLHYDEFPLTFGGGTKVEIK | 220
2 | humanized 7B3 (h7B3), Fc version not stated (antibody, V domains shown) VH: EVQLVESGGGLVQPGGSLRLSCAASGFTFSTYGFHWVRQAPGKGLEWVAYISSNSGTIDYADTVKGRFTISRDNAKNSLYLQMNSLRAEDTAVYYCARQGYGFDNWGQGTTVTVSS VL: DIQLTQSPSSLSASVGDRVTITCSASSRVSYMNWYQQKPGKSPKIWVYGISNLASGVPSRFSGSGSGTDFTFTISSLQPEDIATYYCQQRSSHPLTFGGGTKVEIK | 75
3 | humanized 8E11 (h8E11), Fc version not stated (antibody, V domains shown) VH: EVQLVESGGGLVQPGGSLRLSCAASGFTFRTYGMHWVRQAPGKGLEWVAYISSGSGTIDYADTVKGRFTISRDNAKNSLYLQMNSLRAEDTAVYYCTRQTGAMDYWGQGTLVTVSS VL: EIVLTQSPATLSLSPGERATLSCSASSSVSYMNWYQQKPGQSPRLWIYGISNLASGVPARFSGSGSGTDFTLTISSLEPEDFAVYYCQQRSSHPLTFGGGTKVEIK | 145
